One data set has as its target T1, NasLPLDH (Nocardia asteroides, UniProt U5EKS1).
T1 construct: gene NCAST_32_01610; pET28a, codon-optimized synthetic gene, E. coli BL21(DE3)
T1 sequence (U5EKS1 1-404): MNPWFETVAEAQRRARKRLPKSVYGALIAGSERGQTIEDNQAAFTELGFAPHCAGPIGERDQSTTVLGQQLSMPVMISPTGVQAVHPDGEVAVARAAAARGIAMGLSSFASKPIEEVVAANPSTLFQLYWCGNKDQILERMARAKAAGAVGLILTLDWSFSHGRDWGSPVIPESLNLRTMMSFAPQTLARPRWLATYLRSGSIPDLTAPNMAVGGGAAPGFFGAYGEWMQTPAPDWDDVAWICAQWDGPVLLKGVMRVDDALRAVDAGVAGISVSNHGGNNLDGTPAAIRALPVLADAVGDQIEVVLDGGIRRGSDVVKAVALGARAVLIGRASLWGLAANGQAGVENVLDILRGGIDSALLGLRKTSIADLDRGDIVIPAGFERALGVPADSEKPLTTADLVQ
Kind of data set: substrate specificity, dehydrogenation by recombinant enzyme. It counts as cell-based. The note with it: recombinant E. coli BL21(DE3); FMN-dependent.

For the next data set, the target named is T2, CduCPR (Candida dubliniensis, UniProt B9WJQ5).
T2 construct: gene CPR-C2; pACYCDuet-1, co-expressed with EsGDH in E. coli BL21(DE3) cells
T2 sequence (B9WJQ5 1-309): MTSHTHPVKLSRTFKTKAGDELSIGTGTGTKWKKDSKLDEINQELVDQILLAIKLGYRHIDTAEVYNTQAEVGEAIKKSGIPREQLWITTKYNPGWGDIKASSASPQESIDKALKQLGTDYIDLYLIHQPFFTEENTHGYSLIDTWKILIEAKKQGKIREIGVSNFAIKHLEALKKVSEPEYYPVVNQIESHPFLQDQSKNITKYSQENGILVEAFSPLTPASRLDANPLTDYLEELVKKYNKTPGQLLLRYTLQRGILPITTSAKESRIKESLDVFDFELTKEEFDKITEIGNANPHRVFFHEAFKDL
Kind of data set: whole-cell reduction to D-pantolactone. It counts as cell-based. The note with it: E. coli cells co-expressing EsGDH.

The next data set deals with T3, ZpaCPR.
T3 construct: gene CPR; pET28a, codon-optimized synthetic gene, E. coli BL21(DE3), Ni-NTA purified
Kind of data set: NADPH oxidation, absorbance […] nm, Michaelis-Menten fit. The note with it: 0.15 mM NADPH, 200 mM PBS pH 5.5, 45 °C. It counts as biochemical, Zygosaccharomyces parabailii.

Substrate in the data set “purified protein”: CC1(C)COC(=O)[C@H]1O
Description: purified protein. It counts as biochemical, Amycolatopsis methanolica. The note with it: 0.15 mM FMN, 200 mM PBS pH 8.0, 30 °C.

In the case of `CC1(C)COC(=O)[C@H]1O` [L-pantolactone], the “substrate specificity, dehydrogenation by recombinant enzyme” value at NasLPLDH is listed as “all five LPLDHs showed the capacity to catalyze the dehydrogenation of L-pantolactone but not D-pantolactone”.
With `CC1(C)COC(=O)C1=O` [ketopantolactone], the “whole-cell reduction to D-pantolactone” value at CduCPR is recorded as “used to catalyze the reduction of ketopantolactone, affording the single D-enantiomer”. Also, the Km in the data set on ZpaCPR was 3.65 ± 0.58 mM.

B1: AmeLPLDH (Amycolatopsis methanolica 239) (protein)
chain: MSNGWFETVAEAQRRARKRLPKSVYGALVAGSERGITVDDNIAAFAELGFAPHVAGLSDKRELGTTVMGQPISLPVVISPTGVQAVHPDGEVAVARAAAARGTAMGLSSFASKSIEEVAAANPQTFFQMYWVGSRDVLVQRMERARAAGAVGLIMTLDWSFSTGRDWGSPVIPEKLDLKAMARFAPEGITRPKWLWDFAKTRKLPDLTTPNLTPPGGTAPTFFGAYGEWMQTPLPTWEDVAWLREQWGGPFMLKGVMRVDDAKRAVDAGVTAISVSNHGGNNLDGTPAPIRALPAIADAVGGDVEVLLDGGIRRGSDVVKAIALGAKAVLIGRAYLWGLAANGQAGVENVLDILRGGIDSAVLGLGKTSIHELTRDDVVIPPGFERALGVPKS
notes: pET28a, codon-optimized synthetic gene, E. coli BL21(DE3), Ni-NTA purified, Brij 35 solubilised
In the case of B1, in “purified protein”, the Km is reported as 0.57 ± 0.04 mM, the Vmax was 52.5 µmol/min/mg, the kcat is 36.41 ± 0.29 s⁻¹ and the kcat/Km came out at 63850 ± 510 M⁻¹ s⁻¹.

Usually Km stands for the substrate concentration at which the rate is half of its maximum. The term Vmax denotes the rate approached at saturating substrate. The term kcat denotes the number of substrate molecules converted per active site and unit of time at saturation. The kcat/Km is the turnover number divided by the Michaelis constant.

For the origin of these results see article PMC10384591, “Multi-Enzymatic Cascade for Efficient Deracemization of DL-Pantolactone into D-Pantolactone” (Molecules, 2023).
